Sequences and labels used below:
B2: endogenous mature Omi from HEK293 cell extracts (38 kDa band) (enzyme)
chain: AVPSPPPASPRSQYNFIADVVEKTAPAVVYIEILDRHPFLGREVPISNGSGFVVAADGLIVTNAHVVADRRRVRVRLLSGDTYEAVVTAVDPVADIATLRIQTKEPLPTLPLGRSADVRQGEFVVAMGSPFALQNTITSGIVSSAQRPARDLGLPQTNVEYIQTDAAIDFGNSGGPLVNLDGEVIGVNTMKVTAGISFAIPSDRLREFLHRGEKKNSSSGISGSQRRYIGVMMLTLSPSILAELQLREPSFPDVQHGVLIHKVILGSPAHRAGLRPGDVILAIGEQMVQNAEDVYEAVRTQSQLAVQIRRGRETLTLYVTPEVTE
notes: also called HtrA2

Assay [1] has as its target T1, Omi-deltaAVPS (C-terminal His6-tagged recombinant mature Omi with the AVPS motif deleted) (human, UniProt O43464 138-458).
T1 construct: also called Omi-ΔAVPS
T1 sequence: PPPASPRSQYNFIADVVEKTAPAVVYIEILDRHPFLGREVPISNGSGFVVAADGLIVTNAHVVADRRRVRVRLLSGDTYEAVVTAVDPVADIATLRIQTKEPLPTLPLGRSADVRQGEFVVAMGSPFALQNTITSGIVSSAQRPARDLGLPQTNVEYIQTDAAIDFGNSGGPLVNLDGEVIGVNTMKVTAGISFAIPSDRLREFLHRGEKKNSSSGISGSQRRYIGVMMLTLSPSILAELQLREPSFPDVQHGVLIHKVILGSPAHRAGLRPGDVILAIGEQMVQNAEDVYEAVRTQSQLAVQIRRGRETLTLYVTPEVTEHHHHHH
Nature of the assay: GST pull-down with purified recombinant proteins, Coomassie gel. The source says: To determine whether a recombinant Omi lacking the first 133 residues (mature Omi) can interact with the GST-BIR3 fusion protein, this protein was expressed with a C-terminal His6 tag in bacteria and purified to apparent homogeneity (see FIG. 7B). […] FIGS. 7A and 7B show scanned images of Coomassie stained gels representing SDS-PAGE analysis of purified C-terminal His6-tagged recombinant wild type mature Omi (WT), Omi-ΔAVPS, Omi-S306A, and mature Smac (FIG. 7A) and recombinant Omi and Smac proteins with GST-BIR1, 2, GST-BIR3 or GST-BIR3-E314S fusion proteins (FIG. 7B). Both recombinant mature Omi and Smac were able to interact equally with the wild type GST-BIR3 protein but not with the GST-BIR3-E314S mutant ([…]). Mature Omi and Smac were also able to interact with the GST-BIR1, 2 fusion protein. […] However, deletion of the AVPS motif of mature Omi completely abolished its interaction with the GST-BIR3 fusion protein.

The target of assay [2] is T2, M-Omi-GFP (active Omi-GFP fusion protein without the MTS, initiator methionine retained) (human, UniProt O43464 134-458).
T2 construct: also called Omi134-458-GFP; not shown: C-terminal GFP tag
T2 sequence: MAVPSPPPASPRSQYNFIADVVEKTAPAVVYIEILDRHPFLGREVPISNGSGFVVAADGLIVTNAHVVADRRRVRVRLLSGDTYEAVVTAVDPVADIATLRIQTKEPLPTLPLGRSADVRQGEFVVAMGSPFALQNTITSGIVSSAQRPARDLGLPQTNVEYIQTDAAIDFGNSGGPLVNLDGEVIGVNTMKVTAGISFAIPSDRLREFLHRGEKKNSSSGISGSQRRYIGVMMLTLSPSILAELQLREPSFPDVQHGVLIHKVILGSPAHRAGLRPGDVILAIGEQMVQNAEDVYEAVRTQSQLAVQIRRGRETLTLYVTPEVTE
In words: GST-BIR3 precipitation of transfected cell extracts, immunoblot. Background: A western blot detects proteins with antibodies after separation by electrophoresis.

Assay [3] addresses T3, M-Omi-S/A-GFP (inactive S306A Omi-GFP fusion protein without the MTS, initiator methionine retained) (human, UniProt O43464 134-458).
T3 construct: not shown: C-terminal GFP tag
T3 sequence: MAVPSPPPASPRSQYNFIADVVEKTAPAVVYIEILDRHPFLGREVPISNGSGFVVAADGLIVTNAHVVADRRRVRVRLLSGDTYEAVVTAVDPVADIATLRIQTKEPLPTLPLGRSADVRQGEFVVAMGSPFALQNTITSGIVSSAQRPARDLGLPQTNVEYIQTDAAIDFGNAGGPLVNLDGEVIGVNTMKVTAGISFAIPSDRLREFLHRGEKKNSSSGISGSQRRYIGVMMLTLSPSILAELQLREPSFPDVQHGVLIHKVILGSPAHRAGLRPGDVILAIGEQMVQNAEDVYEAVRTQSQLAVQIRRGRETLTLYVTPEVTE
The description is as above.

In assay [4] the target is T4, Omi-S/A with the AVPS motif mutated to SSAS, from GFP-IETD-SSA (human, UniProt O43464 137-458).
T4 construct: expressed as GFP-IETD fusion
T4 sequence: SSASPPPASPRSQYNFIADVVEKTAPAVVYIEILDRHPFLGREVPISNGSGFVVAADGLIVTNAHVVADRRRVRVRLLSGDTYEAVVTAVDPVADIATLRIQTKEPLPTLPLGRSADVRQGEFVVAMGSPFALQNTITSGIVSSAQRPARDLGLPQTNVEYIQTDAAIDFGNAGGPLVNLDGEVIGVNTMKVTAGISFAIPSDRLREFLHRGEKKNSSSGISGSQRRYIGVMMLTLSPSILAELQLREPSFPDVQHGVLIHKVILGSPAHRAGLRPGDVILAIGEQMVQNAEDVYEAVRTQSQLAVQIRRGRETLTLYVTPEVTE
Nature of the assay: GST-BIR3 precipitation of transfected 293T cell extracts, Flag immunoblot.

For assay [5], the target named is T5, XIAP (human, UniProt P98170 1-497).
T5 construct: also called ^35S-labeled in vitro translated XIAP; ^35S-XIAP
Nature of the assay: far-western blot with ^35S-labeled in vitro translated XIAP. The source says:
As mentioned above, the mechanism of IAP inhibition of caspases is conserved in mammals and insects. Accordingly, it is thought that other mammalian IAP-binding proteins are still undiscovered. To identify such proteins, a GST-BIR3 fusion protein was used as an affinity reagent to purify new IAP binding proteins from extracts of human HEK293 cells and mouse heart, kidney, liver and spleen tissues. […] Cells were homogenized and centrifuged once at 20,000×g and the supernatant was then subjected to centrifugation at 100,000×g. The resultant supernatant was pre-cleared with Glutathion-Sepharose beads and then incubated with GST-BIR3 bound to Glutathion-Sepharose beads for 12 hours at 4° C. The mixture was centrifuged at 500 rpm for three minutes and the GST-BIR3 bead pellet was washed three times in the lysis buffer. After binding the extracts to the GST-BIR3 protein, the bound proteins were eluted with 200 μM of the Smac IAP-binding motif peptide AVPIA (SEQ ID NO:2) at 37° C. for one hour and analyzed by far-western blotting with ³⁵S-labeled in vitro translated XIAP. Specifically, the affinity-purified proteins were subjected to SDS-PAGE electrophoresis and then transferred to a nitrocellulose membrane using standard western blotting technique. […]

For assay [6], the target named is B2. Nature of the assay: immunodepletion of 293 extracts with Smac monoclonal antibody, then GST-BIR3 pull-down. As for the experimental part: The undepleted and depleted extracts were incubated with the GST-BIR3 protein and the bound proteins were eluted as above. The eluates were then analyzed by far-western blotting with ³⁵S-XIAP and by western blotting with the Smac antibody as described above (see FIG. 4, left and right panels, respectively). […] The asterisk in FIG. 4 indicates non-specific bands and the arrow indicates the IgG band.

The target of assay [7] is T5, XIAP. In words: co-immunoprecipitation with Flag antibody from 293T cells, XIAP immunoblot.

This note sets out measurements from patent publication US20030073629A1 (published 2003).

T5 sequence (P98170 whole entry): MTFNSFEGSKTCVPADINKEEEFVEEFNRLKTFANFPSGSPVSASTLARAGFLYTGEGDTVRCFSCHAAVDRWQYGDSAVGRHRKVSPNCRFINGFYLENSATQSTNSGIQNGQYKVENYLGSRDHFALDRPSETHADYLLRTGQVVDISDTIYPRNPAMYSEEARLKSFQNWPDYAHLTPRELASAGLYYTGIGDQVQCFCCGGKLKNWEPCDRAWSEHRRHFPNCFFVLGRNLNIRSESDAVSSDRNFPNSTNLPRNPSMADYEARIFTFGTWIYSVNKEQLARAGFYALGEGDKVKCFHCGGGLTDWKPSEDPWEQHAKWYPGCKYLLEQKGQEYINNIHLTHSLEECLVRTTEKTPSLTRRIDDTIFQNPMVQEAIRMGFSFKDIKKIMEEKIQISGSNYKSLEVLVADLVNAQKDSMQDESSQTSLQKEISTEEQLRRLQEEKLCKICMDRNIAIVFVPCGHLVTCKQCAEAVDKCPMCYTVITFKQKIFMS

B1: GST-BIR3 fusion protein (BIR3 domain of human XIAP fused to GST) (other, UniProt P98170 238-358, looked up)
chain: RSESDAVSSDRNFPNSTNLPRNPSMADYEARIFTFGTWIYSVNKEQLARAGFYALGEGDKVKCFHCGGGLTDWKPSEDPWEQHAKWYPGCKYLLEQKGQEYINNIHLTHSLEECLVRTTEK
notes: domain: BIR3; also called wild type GST-BIR3; XIAP-BIR3; not shown: glutathione-S-transferase (GST) fusion partner
For the molecule B1, the binding result in assay [1], in assay [2], in assay [3] and in assay [4] was “no binding” throughout. With B2, the binding result in assay [5] is “binds”.

B3: endogenous mature Smac/Diablo from HEK293 cell extracts (23 kDa band) (other, human, UniProt Q9NR28 56-239, looked up)
chain: AVPIAQKSEPHSLSSEALMRRAVSLVTDSTSTFLSQTTYALIEAITEYTKAVYTLTSLYRQYTSLLGKMNSEEEDEVWQVIIGARAEMTSKHQEYLKLETTWMTAVGLSEMAAEAAYQTGADQASITARNHIQLVKLQVEEVHQLSRKAETKLAEAQIEELRQKTQEEGEERAESEQEAYLRED
notes: mature
As to B3, in assay [6], the binding result is listed as “no binding”.

B4: mature Omi with the AVPS motif mutated to AAAS, processed in 293T cells from a C-terminal Flag-tagged mutant precursor (enzyme)
chain: AAASPPPASPRSQYNFIADVVEKTAPAVVYIEILDRHPFLGREVPISNGSGFVVAADGLIVTNAHVVADRRRVRVRLLSGDTYEAVVTAVDPVADIATLRIQTKEPLPTLPLGRSADVRQGEFVVAMGSPFALQNTITSGIVSSAQRPARDLGLPQTNVEYIQTDAAIDFGNSGGPLVNLDGEVIGVNTMKVTAGISFAIPSDRLREFLHRGEKKNSSSGISGSQRRYIGVMMLTLSPSILAELQLREPSFPDVQHGVLIHKVILGSPAHRAGLRPGDVILAIGEQMVQNAEDVYEAVRTQSQLAVQIRRGRETLTLYVTPEVTE
notes: also called AAAS mutant; not shown: C-terminal Flag tag
Turning to B4, the binding result in assay [7] is given as “no binding”.
